{"source": "paper PMC8287685", "about": "“Archaeal Orc1 protein interacts with T-rich single-stranded DNA”", "binders": {"B1": {"name": "L bottom (ssDNA)", "DNA": "TTTAAAACTGGGTTTTTGTATCATTATATTGGCATTCTTCAAGAGCACTATTCGGGAGGAGTATACGCTTC"}, "B2": {"name": "R top (ssDNA)", "DNA": "CAAATCAAGCTAGAAACAAACAAAGACACACTATAATCCAGAACTGCACAGCCTGA"}, "B3": {"name": "polyT(70) (ssDNA)", "DNA": "TTTTTTTTTTTTTTTTTTTTTTTTTTTTTTTTTTTTTTTTTTTTTTTTTTTTTTTTTTTTTTTTTTTTTT"}, "B4": {"name": "polyA(60) (ssDNA)", "DNA": "AAAAAAAAAAAAAAAAAAAAAAAAAAAAAAAAAAAAAAAAAAAAAAAAAAAAAAAAAAAA"}, "B5": {"name": "polyA(70) (ssDNA)", "DNA": "AAAAAAAAAAAAAAAAAAAAAAAAAAAAAAAAAAAAAAAAAAAAAAAAAAAAAAAAAAAAAAAAAAAAAA"}, "B6": {"name": "R bottom (ssDNA)", "DNA": "TCAGGCTGTGCAGTTCTGGATTATAGTGTGTCTTTGTTTGTTTCTAGCTTGATTTG"}, "B7": {"name": "polyT(60) (ssDNA)", "DNA": "TTTTTTTTTTTTTTTTTTTTTTTTTTTTTTTTTTTTTTTTTTTTTTTTTTTTTTTTTTTT"}}, "key": {"ApOrc1 (Orc1-1) [1]": {"molecular_target": "T1, ApOrc1 (Orc1-1) (Aeropyrum pernix, UniProt Q9YEV6 1-395)", "T1 sequence": "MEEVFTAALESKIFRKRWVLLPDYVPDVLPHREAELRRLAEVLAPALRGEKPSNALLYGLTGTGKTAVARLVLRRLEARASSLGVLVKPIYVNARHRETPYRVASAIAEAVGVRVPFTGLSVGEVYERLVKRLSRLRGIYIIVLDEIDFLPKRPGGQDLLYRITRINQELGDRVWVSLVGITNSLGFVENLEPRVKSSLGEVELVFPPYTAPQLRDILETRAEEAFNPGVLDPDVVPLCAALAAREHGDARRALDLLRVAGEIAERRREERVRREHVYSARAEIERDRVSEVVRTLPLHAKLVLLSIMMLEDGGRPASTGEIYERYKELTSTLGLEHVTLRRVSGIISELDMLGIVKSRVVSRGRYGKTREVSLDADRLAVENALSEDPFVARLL", "experiment": "BLI; among the highest; SPR: HBS-EP + 10 mM MgCl2, 2 mM ATP; BLI (room temperature) and MST: EDBS (25 mM Tris-HCl pH 8, 4% sucrose, 4 mM DTT, 80 ug/mL BSA, 10 mM Mg(OAc)2, 2 mM [truncated]); EMSA: 40 mM HEPES-KOH pH 8, 25 mM [truncated], 5% PAGE in TBE", "details": "protein: recombinant; label: 5' biotin"}, "ApOrc1 (Orc1-1) [2]": {"molecular_target": "T1, ApOrc1 (Orc1-1)", "experiment": "BLI; higher than L top; SPR: HBS-EP + 10 mM MgCl2, 2 mM ATP; BLI (room temperature) and MST: EDBS (25 mM Tris-HCl pH 8, 4% sucrose, 4 mM DTT, 80 ug/mL BSA, 10 mM Mg(OAc)2, 2 mM [truncated]); EMSA: 40 mM HEPES-KOH pH 8, 25 mM [truncated], 5% PAGE in TBE", "details": "protein: recombinant; label: 5' biotin"}, "ApOrc1 (Orc1-1) [3]": {"molecular_target": "T1, ApOrc1 (Orc1-1)", "experiment": "SPR; ATP, Mg2+; SPR: HBS-EP + 10 mM MgCl2, 2 mM ATP; BLI (room temperature) and MST: EDBS (25 mM Tris-HCl pH 8, 4% sucrose, 4 mM DTT, 80 ug/mL BSA, 10 mM Mg(OAc)2, 2 mM [truncated]); EMSA: 40 mM HEPES-KOH pH 8, 25 mM [truncated], 5% PAGE in TBE", "details": "protein: recombinant; label: 5' biotin (BLI, SPR); fluorescent (MST)"}, "SSB [4]": {"molecular_target": "T2, SSB (Escherichia coli, UniProt P0AGE0 1-178)", "T2 sequence (P0AGE0 whole entry, the tested form may be a part)": "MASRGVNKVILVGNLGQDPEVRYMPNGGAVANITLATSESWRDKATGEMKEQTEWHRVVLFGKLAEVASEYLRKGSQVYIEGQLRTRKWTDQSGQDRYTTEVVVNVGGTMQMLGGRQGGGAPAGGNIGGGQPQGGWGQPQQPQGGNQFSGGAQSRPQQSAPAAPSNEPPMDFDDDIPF", "experiment": "SPR; no significant difference from R bottom; SPR: HBS-EP + 10 mM MgCl2, 2 mM ATP; BLI (room temperature) and MST: EDBS (25 mM Tris-HCl pH 8, 4% sucrose, 4 mM DTT, 80 ug/mL BSA, 10 mM Mg(OAc)2, 2 mM [truncated]); EMSA: 40 mM HEPES-KOH pH 8, 25 mM [truncated], 5% PAGE in TBE", "details": "chain copies: 4; label: 5' biotin (BLI, SPR); fluorescent (MST)"}, "ApOrc1 (Orc1-1) [5]": {"molecular_target": "T1, ApOrc1 (Orc1-1)", "experiment": "MST; SPR: HBS-EP + 10 mM MgCl2, 2 mM ATP; BLI (room temperature) and MST: EDBS (25 mM Tris-HCl pH 8, 4% sucrose, 4 mM DTT, 80 ug/mL BSA, 10 mM Mg(OAc)2, 2 mM [truncated]); EMSA: 40 mM HEPES-KOH pH 8, 25 mM [truncated], 5% PAGE in TBE", "details": "protein: recombinant; label: 5' Cy3"}, "ApOrc1 (Orc1-1) [6]": {"molecular_target": "T1, ApOrc1 (Orc1-1)", "experiment": "SPR; SPR: HBS-EP + 10 mM MgCl2, 2 mM ATP; BLI (room temperature) and MST: EDBS (25 mM Tris-HCl pH 8, 4% sucrose, 4 mM DTT, 80 ug/mL BSA, 10 mM Mg(OAc)2, 2 mM [truncated]); EMSA: 40 mM HEPES-KOH pH 8, 25 mM [truncated], 5% PAGE in TBE", "details": "protein: recombinant; label: Biotin-14-dCTP by TdT"}, "ApOrc1 (Orc1-1) [7]": {"molecular_target": "T1, ApOrc1 (Orc1-1)", "experiment": "SPR; highest response; SPR: HBS-EP + 10 mM MgCl2, 2 mM ATP; BLI (room temperature) and MST: EDBS (25 mM Tris-HCl pH 8, 4% sucrose, 4 mM DTT, 80 ug/mL BSA, 10 mM Mg(OAc)2, 2 mM [truncated]); EMSA: 40 mM HEPES-KOH pH 8, 25 mM [truncated], 5% PAGE in TBE", "details": "protein: recombinant; label: 5' biotin"}, "ApOrc1 (Orc1-1) [8]": {"molecular_target": "T1, ApOrc1 (Orc1-1)", "experiment": "SPR; ATP, Mg2+; SPR: HBS-EP + 10 mM MgCl2, 2 mM ATP; BLI (room temperature) and MST: EDBS (25 mM Tris-HCl pH 8, 4% sucrose, 4 mM DTT, 80 ug/mL BSA, 10 mM Mg(OAc)2, 2 mM [truncated]); EMSA: 40 mM HEPES-KOH pH 8, 25 mM [truncated], 5% PAGE in TBE", "details": "protein: recombinant; label: 5' biotin (BLI, SPR); fluorescent (MST)", "remark": "listed apart in the source"}, "SSB [9]": {"molecular_target": "T2, SSB", "experiment": "SPR; no significant difference from R top; SPR: HBS-EP + 10 mM MgCl2, 2 mM ATP; BLI (room temperature) and MST: EDBS (25 mM Tris-HCl pH 8, 4% sucrose, 4 mM DTT, 80 ug/mL BSA, 10 mM Mg(OAc)2, 2 mM [truncated]); EMSA: 40 mM HEPES-KOH pH 8, 25 mM [truncated], 5% PAGE in TBE", "details": "chain copies: 4; label: 5' biotin (BLI, SPR); fluorescent (MST)"}}, "data": [{"binder": "TTTAAAACTGGGTTTTTGTATCATTATATTGGCAT (ssDNA)", "note": "[L2 bottom]", "values": [{"measurement": "binding result", "setting": "ApOrc1 (Orc1-1) [1]", "value": "binds"}]}, {"binder": "B1", "values": [{"measurement": "binding result", "setting": "ApOrc1 (Orc1-1) [2]", "value": "binds"}]}, {"binder": "B2", "values": [{"measurement": "binding signal", "setting": "ApOrc1 (Orc1-1) [3]", "value": "~0.33 fold SPR response vs R bottom (stated as R bottom 3 times higher)"}, {"measurement": "binding result", "setting": "SSB [4]", "value": "binds"}]}, {"binder": "B3", "values": [{"measurement": "binding result", "setting": "ApOrc1 (Orc1-1) [5]", "value": "binds"}]}, {"binder": "B4", "values": [{"measurement": "binding result", "setting": "ApOrc1 (Orc1-1) [6]", "value": "no binding"}]}, {"binder": "TGTGTCTTTGTTTGTTTCTAGCTTGATTTG (ssDNA)", "note": "[R1 bottom]", "values": [{"measurement": "binding result", "setting": "ApOrc1 (Orc1-1) [7]", "value": "binds"}]}, {"binder": "B5", "values": [{"measurement": "binding result", "setting": "ApOrc1 (Orc1-1) [5]", "value": "no binding"}]}, {"binder": "B6", "values": [{"measurement": "binding signal", "setting": "ApOrc1 (Orc1-1) [8]", "value": "~3 fold SPR response vs R top"}, {"measurement": "binding result", "setting": "SSB [9]", "value": "binds"}]}, {"binder": "B7", "values": [{"measurement": "binding result", "setting": "ApOrc1 (Orc1-1) [6]", "value": "binds"}]}]}
